Data: publication PMC9834170 (Cell Reports Medicine, 2023)

Key:
[1] = target: T1, SARS-CoV-2 prototype RBD with human IgG Fc-tag (SARS-CoV-2, UniProt P0DTC2); assay: SPR
[2] = target: T1, SARS-CoV-2 prototype RBD with human IgG …; assay: cell-based or functional assay

Row | Binder | Kd [1] | IC50 of neutralization of live SARS-CoV-2 in Vero cells (blocks S with ACE2) [2] | IC50 of neutralization of live SARS-CoV-2 in Vero cells (blocks RBD with hACE2) [2]
1 | nanobody S43 (VHH) VHH: QVQLQESGGGLVQPGGSLRLTCAPSGFTLDYYAIGWFRQAPGKEREGVSCISSNNSTYYADSVKGRFTISRDNAKNTVYLQMNSLKPEDTAVYYCAAEPDYSGVYYYTCGWTDFGSWGQGTQVTVSS | 0.18 nM | 40.7 nM | –
2 | nanobody R14 (VHH) VHH: QVQLQESGGGLVQPGGSLRLSCAVSGFTLDYYAIGWFRQAPGKEREGVSCISSSDGSTSYADSVKGRFTISRDNAKNTVYLQMNSLKPEDTALYYCAATPATYYSGRYYYQCPAGGMDYWGQGTQVTVSS | – | – | 1.3 nM
